Results: the RNAGym collection of RNA variant scans (doi:10.7554/elife.80360)

B1: Hairpin Ribozyme (parent)
chain: GUCCUCUUUCACGUGCGCGUGAAAGAGAGAAGUGAACCAGAGAAACACACGUUGUGGUAUAUUACCUGGUA

Variants of: B1
Assay: self-cleavage, relative activity (ratio to wild type); higher = more cleavage; co-transcriptional

Variant	self-cleavage
G56C G69A	0.135
G54C A61G	0.0386
G54C A61U	0.105
U55G A61U	0.0838
U55G A61C	0.21
U52C U58A	0.67
U53C A64G	0.616
U53C G54U	0.573
U53C G54C	0.546
G56A A59G	0.167
G56C A71C	0.315
U55G G69A	0.178
U58A A59C	0.252
U58A A59U	0.183
U53G A71G	0.73
G54C U55C	0.245
U52C G56A	0.211
U52C C66U	0.626
U52G U70A	0.638
G57C A71G	0.201
G57C A71C	0.356
G57C A71U	0.157
G54U U62A	0.229
G54U U62G	0.166

Variant	self-cleavage
U52C U67G	0.276
U58A G69U	0.175
U58A A64U	0.237
U58A A64C	0.143
U55C C65U	0.27
G57U G69A	0.149
U55G G57U	0.222
G56C C66G	0.209
G56C C66U	0.199
G56C C66A	0.156
U53C C66G	0.328
U53G C66A	0.131
G57U C66G	0
U55C C66U	0.157
G57A G68C	0.207
G57A G68U	0.169
G57C A61G	0.0894
G56C A61G	0.155
U55G C66A	0.201
G54C C66G	0.237
G54A G56C	0.0439
G54C U58G	0.272
G54C U58C	0.478
G54C U58A	0.334

Variant	self-cleavage
G56U G68U	0.276
U55C G57U	0.299
G56A A71C	0.404
G56C A64U	0.0562
U55G U63A	0.346
G56A U62C	0.141
G56A U62A	0.182
U52G C65A	0.782
G54U G57C	0.177
G54U G57U	0.282
G54U G57A	0.164
G54A C66A	0.229
G54A C66U	0.272
U53C G68U	0.361
U53C G68C	0.267
U53C G68A	0.328
U52G G69A	0.263
U52G G56A	0.19
G56C C65A	0.274
U52C	0.97
U52G	0.862
U53A G54C	0.472
U53A G54U	0.609
U53C U58G	0.948

Variant	self-cleavage
U52G A61C	0.147
U58A U63A	0.14
U55C G68C	0.159
U55C G68U	0.0915
G54A G57C	0.149
U52A U53A	0.817
U52A U53G	1.01
G57C G68C	0.21
G57C G68A	0.195
G57C C66A	0.15
U53A A59U	0.129
U53A A59G	0.177
G56A C65G	0.214
G56A C65A	0.097
G56U A59G	0.238
U53A G56U	0.105
G57C C65G	0.154
G56A U67G	0.104
G56A U67C	0.129
U53A	1.01
U53G	0.86
U53C	0.97
G54U A61C	0.152
U55A G56A	0.168

Variant	self-cleavage
U52C U53A	1.07
G54C U67G	0.174
G57U A71G	0.254
G54C A71C	0.961
G54C A71U	0.243
G57A U67C	0.123
G57A U67G	0.191
U53G U62A	0.0694
U52G G68A	0.407
G54U C66G	0.181
U58A U62C	0.12
U52A U62G	0.0279
U52A U62C	0.187
U55A U63C	0.106
U55A U63A	0.0786
G57U A61C	0.0714
G56C U58A	0.2
G56C U58C	0.246
U55G U67A	0.219
U52C U62G	0.0331
G57C U62A	0.183
G57C U62C	0.15
U52G U60A	0.4
U52G U60G	0.298

Variant	self-cleavage
G56U A71C	0.454
G56U A71U	0.177
G54U A71G	0.552
G54U A71U	0.333
U53A U55A	0.0855
G56C G68A	0.153
U53A G69A	0.484
U55G U62C	0.161
U55G U62A	0.104
U58A A71G	0.768
G56C U60G	0.111
U53A A61U	0.248
U55C U70G	0.203
U52C A64U	0.331
U53G C65U	0.413
U53G C65G	0.0347
G56A G69U	0.258
U52A U55G	0.372
U52C A71G	1.08
U52C A71C	1.51
U55C A61G	0.181
U55A U60C	0.712
G54C U62G	0.141
G54U U55A	0.354

Variant	self-cleavage
G54U A59G	0.148
U52G G54U	0.417
U52G G54A	0.375
U52G G54C	0.42
U53A A71G	1.07
G54U U70G	0.43
G54U U70C	0.569
G56C U62C	0.244
G54U U67G	0.171
G56U U63A	0.157
G57A A64U	0.119
U58A U67G	0.135
U55A A61U	0.214
U55G U60C	0.408
G56A A64C	0.0783
G56A A64G	0.12
G56A A64U	0.135
U55A G68A	0.163
U58A C66G	0.165
G56U A64C	0.177
G54C G57A	0.0995
G56C A59U	0.173
G56U U58A	0.0912
